Earlier results on one substance are cited in paper PMC5695669 (Journal of medicinal chemistry, 2012).

One series deals with rMor (μ opioid receptor) (Rattus norvegicus, UniProt P33535). To be noted: [3H]DAMGO, ±SEM, ref [3].
The test system of series [1] is guinea pig ileum longitudinal muscle-myenteric plexus. To be noted: read-out: GPI (IC50); functional bioactivity, ±SEM; ref [3].

rMor (μ opioid receptor), sequence (P33535 whole entry): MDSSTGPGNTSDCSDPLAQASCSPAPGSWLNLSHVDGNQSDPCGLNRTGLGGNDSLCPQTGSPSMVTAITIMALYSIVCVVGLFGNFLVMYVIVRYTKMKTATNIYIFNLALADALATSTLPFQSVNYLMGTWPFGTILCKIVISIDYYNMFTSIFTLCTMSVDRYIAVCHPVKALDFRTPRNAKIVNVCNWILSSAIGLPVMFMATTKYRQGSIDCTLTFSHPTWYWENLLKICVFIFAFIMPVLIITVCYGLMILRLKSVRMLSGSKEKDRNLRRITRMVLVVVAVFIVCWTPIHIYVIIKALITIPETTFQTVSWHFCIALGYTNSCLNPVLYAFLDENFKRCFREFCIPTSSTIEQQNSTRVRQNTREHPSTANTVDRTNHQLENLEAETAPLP

On to “H-Tyr-Pro-Phe-Phe-NH2 (H-YPFF-NH2) [EM-2]”, for which the inhibition constant Ki with rMor (μ opioid receptor) was 9.6 ± 0.98 nM. In addition, in series [1], the IC50 is 15 ± 2 nM.
